The values that follow come from PMC4889959 (Nucleic Acids Research, 2016).

The labels stand for the following.
B1: SLX4BTB wild type, yeast two-hybrid fusion [human] / SLX4BTB wild type, yeast two-hybrid fusion [human] (parent)
chain 1: QDKHPDRGGRTLLSLGLLVADFGAMVNNPHLSDVQFQTDSGEVLYAHKFVLYARCPLLIQYVNNEGFSAVEDGVLTQRVLLGDVSTEAARTFLHYLYTADTGLPPGLSSELSSLAHRFGVSELVHLCEQVPIATDS
chain 2: B1 chain 1

In the first test the parent is B1. Description: yeast two-hybrid β-galactosidase assay. The conditions noted are these: with SLX4BTB wild type, ONPG as substrate, SLX4BTB-F708R-AD + SLX4BTB-BD, parent: 710, read off a plot.
Take chain 1 F49R: the response (OD420 reading) was 5.5.

The test is the same for the next values; noted with them: with SLX4BTB wild type, ONPG as substrate, SLX4BTB-F681R-F708R-AD + SLX4BTB-BD, parent: 710, read off a plot.
Regarding chain 1 F22R F49R, the response (OD420 reading) came to 5.
